From paper PMC4517146, “Enzymatic Enantioselective Decarboxylative Protonation of Heteroaryl Malonates” (Chemistry (Weinheim an Der Bergstrasse, Germany), 2015)

What was measured:
Assay in all cases: spectrophotometric decarboxylation kinetics
Assay type in all cases: biochemical, Bordetella bronchiseptica
Details in all cases: assay conditions in Supporting Information
[1] = substrate: Cc1ccc(C(O)(C(=O)O)C(=O)O)o1
[2] = substrate: O=C(O)C(C(=O)O)c1ccco1
[3] = substrate: O=C(O)C(O)(C(=O)O)c1ccc2sccc2c1
[4] = substrate: O=C(O)C(O)(C(=O)O)c1cc2ccccc2o1
[5] = substrate: O=C(O)C(O)(C(=O)O)c1ccco1
[6] = substrate: O=C(O)C(O)(C(=O)O)c1cccs1
[7] = substrate: O=C(O)C(O)(C(=O)O)c1cccnc1

B1: aryl/alkenyl malonate decarboxylase (AMDase) (Bordetella bronchiseptica) (protein)
chain: MQQASTPTIGMIVPPAAGLVPADGARLYPDLPFIASGLGLGSVTPEGYDAVIESVVDHARRLQKQGAAVVSLMGTSLSFYRGAAFNAALTVAMREATGLPCTTMSTAVLNGLRALGVRRVALATAYIDDVNERLAAFLAEESLVPTGCRSLGITGVEAMARVDTATLVDLCVRAFEAAPDSDGILLSCGGLLTLDAIPEVERRLGVPVVSSSPAGFWDAVRLAGGGAKARPGYGRLFDES
notes: AMDase, construct details only in Supporting Information
How did the Km [1] turn out when B1 was run?
The Km was 9.8 ± 2.2 mM.

What about the kcat [1] of the same protein?
The kcat was 37.1 ± 8.8 s⁻¹.

What about the kcat/Km [1] of the same protein?
Its kcat/Km is 3800 ± 500 M⁻¹ s⁻¹.

And the Km [2]?
The Km was 10.1 ± 4.5 mM.

And the Km [3]?
Its Km is 3.1 ± 0.17 mM.

And the kcat [3]?
The kcat was 148 ± 4.6 s⁻¹.

What about the kcat/Km [3] of the same protein?
The kcat/Km was 48300 ± 170 M⁻¹ s⁻¹.

What about the Km [4] of the same protein?
The Km was 8.2 ± 1.6 mM.

What about the kcat [4] of the same protein?
The kcat was 278 ± 33.9 s⁻¹.

And the kcat/Km [4]?
The kcat/Km was 33900 ± 320 M⁻¹ s⁻¹.

What about the Km [5] of the same protein?
The Km was 8.6 ± 2.1 mM.

What about the kcat [5] of the same protein?
The kcat was 61.9 ± 6 s⁻¹.

And the kcat/Km [5]?
Its kcat/Km is 6400 ± 400 M⁻¹ s⁻¹.

And the Km [6]?
Its Km is 4.3 ± 0.5 mM.

What about the kcat [6] of the same protein?
The kcat was 166 ± 10.6 s⁻¹.

And the kcat/Km [6]?
The kcat/Km was 38600 ± 200 M⁻¹ s⁻¹.

And the Km [7]?
Its Km is 6.4 ± 0.6 mM.

And the kcat [7]?
Its kcat is 225 ± 36.3 s⁻¹.

And the kcat/Km [7]?
Its kcat/Km is 35300 ± 250 M⁻¹ s⁻¹.
